Results published in article PMC10696467 (The Journal of Biological Chemistry, 2023).

B1: speckle-type POZ protein (SPOP) WT, residues 28-359 (domain or fragment)
chain: KVVKFSYMWTINNFSFCREEMGEVIKSSTFSSGANDKLKWCLRVNPKGLDEESKDYLSLYLLLVSCPKSEVRAKFKFSILNAKGEETKAMESQRAYRFVQGKDWGFKKFIRRDFLLDEANGLLPDDKLTLFCEVSVVQDSVNISGQNTMNMVKVPECRLADELGGLWENSRFTDCCLCVAGQEFQAHKAILAARSPVFSAMFEHEMEESKKNRVEINDVEPEVFKEMMCFIYTGKAPNLDKMADDLLAAADKYALERLKVMCEDALCSNLSVENAAEILILADLHSADQLKTQAVDFINYHASDVLETSGWKSMVVSHPHLVAEAYRSLASA
B2: SPOP R354H, residues 28-359 (domain or fragment)
chain: KVVKFSYMWTINNFSFCREEMGEVIKSSTFSSGANDKLKWCLRVNPKGLDEESKDYLSLYLLLVSCPKSEVRAKFKFSILNAKGEETKAMESQRAYRFVQGKDWGFKKFIRRDFLLDEANGLLPDDKLTLFCEVSVVQDSVNISGQNTMNMVKVPECRLADELGGLWENSRFTDCCLCVAGQEFQAHKAILAARSPVFSAMFEHEMEESKKNRVEINDVEPEVFKEMMCFIYTGKAPNLDKMADDLLAAADKYALERLKVMCEDALCSNLSVENAAEILILADLHSADQLKTQAVDFINYHASDVLETSGWKSMVVSHPHLVAEAYHSLASA

Legend:
[1] = biological target: the molecule itself; assay: composite-gradient multiangle light scattering
[2] = biological target: B1; assay: fluorescence polarisation
[3] = biological target: SPOP R221C, residues 28-359 (UniProt O43791 28-359, R221C); assay: fluorescence polarisation
[4] = biological target: B2; assay: fluorescence polarisation
[5] = biological target: SPOP mutBACK (Y353E), residues 28-359 (UniProt O43791 28-359, Y353E); assay: fluorescence polarisation

Binder	Kd [1]	Kd [2]	Kd [3]	Kd [4]	Kd [5]
B1	2.7 µM				
C-terminal intrinsically disordered region of DAXX (cDAXX), fluorescently labeled (domain or fragment, fluorescently labeled (fluorescently tagged cDAXX construct; the labeling methods give Rhodamine Red, N-terminal labeling, for cDAXX)) SPMSSLQISNEKNLEPGKQISRSSGEQQNKGRIVSPSLLSEEPLAPSSIDAESNGEQPEELTLEEESPVSQLFELEIEALPLDTPSSVETDISSSRKQSEEPFTTVLENGAGMVSSTSFNGGVSPHNWGDSGPPCKKSRKEKKQTGSGPLGNSYVERQRSVHEKNGKKICTLPSPPSPLASLAPVADSSTRVDSPSHGLVTSSLCIPSPARLSQTPHSQPPRPGTCKTSVATQCDPEEIIVLSDSD		1.2 µM	3.2 µM	3 µM	
ENLACDEVTSTTSSSST (HELM PEPTIDE1{[O=C1OC2(c3ccc(O)cc3Oc3cc(O)ccc32)c2ccc(C(=O)[*:2])cc21].E.N.L.A.C.D.E.V.T.S.T.T.S.S.S.S.T.[am]}$$$$V2.0; SMILES CC(C)C[C@H](NC(=O)[C@H](CC(N)=O)NC(=O)[C@H](CCC(=O)O)NC(=O)c1ccc2c(c1)C(=O)OC21c2ccc(O)cc2Oc2cc(O)ccc21)C(=O)N[C@@H](C)C(=O)N[C@@H](CS)C(=O)N[C@@H](CC(=O)O)C(=O)N[C@@H](CCC(=O)O)C(=O)N[C@H](C(=O)N[C@H](C(=O)N[C@@H](CO)C(=O)N[C@H](C(=O)N[C@H](C(=O)N[C@@H](CO)C(=O)N[C@@H](CO)C(=O)N[C@@H](CO)C(=O)N[C@@H](CO)C(=O)N[C@H](C(N)=O)[C@@H](C)O)[C@@H](C)O)[C@@H](C)O)[C@@H](C)O)C(C)C) [fPuc peptide (fluorescently labeled SPOP-binding motif from the substrate Puckered)]		9.8 µM	5.9 µM	5.1 µM	4.3 µM
B2	26.9 µM				
